Source: US20160002344A1 (ONCOMED PHARMACEUTICALS, published 2016)

T1: soluble LGR5-Fc fusion protein (human, UniProt O75473 22-564)
T1 construct: range 22-564; Expressed in insect cells with baculovirus, purified on protein A; not shown: human Fc
T1 sequence (looked up): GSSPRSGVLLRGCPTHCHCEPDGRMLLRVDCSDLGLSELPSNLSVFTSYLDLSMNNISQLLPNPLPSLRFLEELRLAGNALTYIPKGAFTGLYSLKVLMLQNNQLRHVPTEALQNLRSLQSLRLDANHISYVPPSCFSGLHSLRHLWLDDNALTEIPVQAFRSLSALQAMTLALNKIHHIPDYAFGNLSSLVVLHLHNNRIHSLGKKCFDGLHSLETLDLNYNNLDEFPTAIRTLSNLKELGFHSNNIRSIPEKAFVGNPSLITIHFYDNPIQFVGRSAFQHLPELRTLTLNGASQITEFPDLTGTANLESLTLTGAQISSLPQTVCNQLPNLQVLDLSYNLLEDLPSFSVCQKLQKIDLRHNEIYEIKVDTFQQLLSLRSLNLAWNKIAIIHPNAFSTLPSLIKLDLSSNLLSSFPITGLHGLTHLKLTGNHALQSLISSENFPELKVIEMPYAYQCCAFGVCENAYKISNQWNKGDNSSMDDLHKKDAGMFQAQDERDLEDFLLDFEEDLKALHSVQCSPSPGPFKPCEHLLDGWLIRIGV

B1: recombinant human RSPO2-Fc fusion protein (Fc fusion)
chain: QGNRWRRSKRASYVSNPICKGCLSCSKDNGCSRCQQKLFFFLRREGMRQYGECLHSCPSGYYGHRAPDMNRCARCRIENCDSCFSKDFCTKCKVGFYLHRGRCFDECPDGFAPLEETMECVEGCEVGHWSEWGTCSRNNRTCGFKWGLETRTRQIVKKPVKDTIPCPTIAESRRCKMTMRHCPGGKRTPKAKEKRNKKKKRKLIERAQEQHSVFLATDRANQ
notes: not shown: human Fc region
B2: recombinant human RSPO1-Fc fusion protein (Fc fusion)
chain: SRGIKGKRQRRISAEGSQACAKGCELCSEVNGCLKCSPKLFILLERNDIRQVGVCLPSCPPGYFDARNPDMNKCIKCKIEHCEACFSHNFCTKCKEGLYLHKGRCYPACPEGSSAANGTMECSSPAQCEMSEWSPWGPCSKKQQLCGFRRGSEERTRRVLHAPVGDHAACSDTKETRRCTVRRVPCPEGQKRRKGGQGRRENANRNLARKESKEAGAGSRRRKGQQQQQQQGTVGPLTSAGPA
notes: not shown: human Fc region

Columns and labels:
[1] = target: T1, soluble LGR5-Fc fusion protein; test: SPR (Biacore 2000), RSPO-Fc immobilized on CM5 chip, soluble LGR5-Fc injected 100 nM to 0.78 nM
Protocol: Binding affinities between RSPO proteins and LGR5 were analyzed by surface plasmon resonance. A soluble LGR5-Fc construct was generated using standard recombinant DNA techniques. Specifically, amino acids 1-564 of human LGR5 were ligated in frame to human Fc and the recombinant LGR5-Fc fusion protein was expressed in insect cells using baculovirus. The LGR5-Fc fusion protein was purified from the insect medium using protein A chromatography. Cleavage of the LGR5 signal sequence results in a mature LGR5-Fc fusion protein containing amino acids 22-564 of LGR5. Recombinant RSPO1-Fc, RSPO2-Fc, RSPO3-Fc and RSPO4-Fc fusion proteins were immobilized on CM5 chips using standard amine-based chemistry (NHS/EDC). Two-fold dilutions of soluble LGR5-Fc were injected over the chip surface (100 nM to 0.78 nM). Kinetic data were collected over time using a Biacore 2000 system from Biacore Life Sciences (GE Healthcare) and the data were fit using the simultaneous global fit equation to yield affinity constants (KD values) for each RSPO protein (Table 3).

[2] = target: Figure 9A construct 1: Positive charge, furin1 (human) (UniProt Q2MKA7); test: FACS, HEK-293 cells transfected with the FLAG-RSPO1 portion-CD4TM construct in Figure 9A; anti-RSPO1 antibody 89M5, PE-conjugated secondary antibody
Sequence of Figure 9A construct 1: Positive charge, furin1 (human) (Q2MKA7 other isoform, or with tags, fused parts or gaps): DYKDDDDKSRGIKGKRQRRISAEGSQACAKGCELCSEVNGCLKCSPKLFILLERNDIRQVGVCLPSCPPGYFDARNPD

[3] = target: Figure 9A construct 3: Positive charge, furin1, furin2, cysteine, Thrombospondin (human) (UniProt Q2MKA7); test: as above
Sequence of Figure 9A construct 3: Positive charge, furin1, furin2, cysteine, Thrombospondin (human) (Q2MKA7 other isoform, or with tags, fused parts or gaps): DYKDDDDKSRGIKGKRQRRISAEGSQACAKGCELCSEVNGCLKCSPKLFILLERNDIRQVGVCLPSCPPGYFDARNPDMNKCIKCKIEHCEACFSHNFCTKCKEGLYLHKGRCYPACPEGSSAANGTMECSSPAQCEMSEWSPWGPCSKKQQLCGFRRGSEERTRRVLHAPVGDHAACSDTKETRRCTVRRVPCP

[4] = target: Figure 9A construct 4: Positive charge, furin1, furin2, cysteine, Thrombospondin, Positive charge (human) (UniProt Q2MKA7); test: as above
[5] = target: Figure 9A construct 2: Positive charge, furin1, furin2 (human) (UniProt Q2MKA7); test: as above
Sequence of Figure 9A construct 2: Positive charge, furin1, furin2 (human) (Q2MKA7 other isoform, or with tags, fused parts or gaps): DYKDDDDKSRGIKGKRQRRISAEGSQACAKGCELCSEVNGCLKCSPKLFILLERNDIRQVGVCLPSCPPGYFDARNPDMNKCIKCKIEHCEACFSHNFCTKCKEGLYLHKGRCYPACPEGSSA

[6] = target: Figure 9A construct 5: furin1, furin2, cysteine (human) (UniProt Q2MKA7); test: as above
Sequence of Figure 9A construct 5: furin1, furin2, cysteine (human) (Q2MKA7 other isoform, or with tags, fused parts or gaps): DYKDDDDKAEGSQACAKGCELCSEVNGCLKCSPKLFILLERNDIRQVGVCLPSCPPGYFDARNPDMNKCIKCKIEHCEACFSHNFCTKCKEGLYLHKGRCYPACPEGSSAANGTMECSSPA

[7] = target: B2; test: SPR (Biacore 2000), RSPO1-Fc immobilized on CM5 chip, antibody injected 100 nM to 0.78 nM
Protocol: (§1) The KDs of antibodies 89M4, 89M5, 89M7 and 89M25 were determined using a Biacore 2000 system from Biacore LifeSciences (GE Healthcare). Recombinant human RSPO1-Fc or mouse RSPO1-Fc proteins were immobilized on CM5 chips using standard amine-based chemistry (NHS/EDC). The antibodies were serially diluted 2-fold from 100 nM to 0.78 nM in HBS-P (0.01M HEPES pH7.4, 0.15M NaCl, 0.005% v/v Surfactant P20) and were injected over the chip surface. Kinetic data were collected over time and were fit using the simultaneous global fit equation to yield affinity constants (KD values) for each antibody.

[8] = target: T2, recombinant mouse RSPO1-Fc protein (mouse, UniProt Q9Z132 21-265, limits assumed); test: as above
T2 construct: Construct not described; not shown: Fc; not described
Protocol: as §1

[9] = target: B1; test: SPR (Biacore 2000), RSPO2-Fc immobilized on CM5 chip, antibody injected 100 nM to 0.78 nM
Protocol: as §1, with “KD” for “KDs”, “130M23 was” for “antibodies 89M4, 89M5, 89M7 and 89M25 were”, “RSPO2-Fc” for “RSPO1-Fc”

[10] = target: T3, recombinant mouse RSPO2-Fc protein (mouse, UniProt Q8BFU0 24-243, limits assumed); test: as above
T3 construct: Construct not described; not shown: Fc; not described
T3 sequence (Q8BFU0 24-243 limits assumed): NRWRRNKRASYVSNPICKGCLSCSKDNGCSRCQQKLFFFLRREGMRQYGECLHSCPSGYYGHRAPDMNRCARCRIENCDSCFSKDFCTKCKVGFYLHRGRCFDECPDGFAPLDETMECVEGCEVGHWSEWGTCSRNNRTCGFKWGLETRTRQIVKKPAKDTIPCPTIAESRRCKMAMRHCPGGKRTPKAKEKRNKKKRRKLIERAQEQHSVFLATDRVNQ
Protocol: as §1, with “KD” for “KDs”, “130M23 was” for “antibodies 89M4, 89M5, 89M7 and 89M25 were”, “RSPO2-Fc” for “RSPO1-Fc”

[11] = target: B1; test: SPR (Biacore 2000), human RSPO2-Fc immobilized on CM5 chip, antibody injected 100 nM to 0.78 nM
Protocol: as §1, with “KD” for “KDs”, “h130M23-H1L2” for “antibodies 89M4, 89M5, 89M7”, “h130M23-H1L6” for “89M25”, “RSPO2-Fc protein was” for “RSPO1-Fc or mouse RSPO1-Fc proteins were”

| Kd [1] | Kd [7] | Kd [8] | Binder | further results |
| --- | --- | --- | --- | --- |
| 73 nM |  |  | recombinant human RSPO4-Fc fusion protein (Fc fusion, not shown: human Fc region) LNRRKKQVGTGLGGNCTGCIICSEENGCSTCQQRLFLFIRREGIRQYGKCLHDCPPGYFGIRGQEVNRCKKCGATCESCFSQDFCIRCKRQFYLYKGKCLPTCPPGTLAHQNTRECQGECELGPWGGWSPCTHNGKTCGSAWGLESRVREAGRAGHEEAATCQVLSESRKCPIQRPCPGERSPGQKKGRKDRRPRKDRKLDRRLDVRPRQPGLQP |  |
| < 1 nM |  |  | recombinant human RSPO3-Fc fusion protein (Fc fusion, not shown: human Fc region) QNASRGRRQRRMHPNVSQGCQGGCATCSDYNGCLSCKPRLFFALERIGMKQIGVCLSSCPSGYYGTRYPDINKCTKCKADCDTCFNKNFCTKCKSGFYLHLGKCLDNCPEGLEANNHTMECVSIVHCEVSEWNPWSPCTKKGKTCGFKRGTETRVREIIQHPSAKGNLCPPTNETRKCTVQRKKCQKGERGKKGRERKRKKPNKGESKEAIPDSKSLESSKEIPEQRENKQQQKKRKVQDKQKSVSVSTVH |  |
| 14 nM |  |  | B1 |  |
|  | < 0.1 nM | < 0.1 nM | anti-RSPO1 monoclonal antibody 89M5 (hybridoma ATCC PTA-11970) (antibody, mouse IgG1, kappa, V domains shown, Murine monoclonal antibody; also called parental 89M5 antibody) VH: EVQLQQSGPELVKPGASVKISCKTSGYTFTGYTMHWVRQSHGKTLEWIGGINPNNGGTTYNQNFKGKATLTVEKSSTTAYLELRSLTSEDSALYYCARKEFSDGYYFFAYWGQGTLVTVSS VL: DIVMTQSHKFMSTSVGDRVNITCKASQDVIFAVAWYQQKPGQSPKLLIYWASTRHTGVPDRFTGSVSGTDYTLTISSVQAEDLALYYCQQHYSTPWTFGGGTKLEIKR | MFI [2]: 5.42; MFI [3]: 20.1; MFI [4]: 10.3; MFI [5]: 15.5; MFI [6]: 406 |
|  | < 0.1 nM | < 0.1 nM | anti-RSPO1 monoclonal antibody 89M25 (antibody, V domains shown) VH: EVQLQQSGPELVKPGASVKISCKTSGYTFTGYTMHWVRQSHGKTLEWIGGINPNNGGTTYNQNFKGKATLTVEKSSTTAYLELRSLTSEDSALYYCARKEFSDGYYFFAYWGQGTLVTVSA VL: DIVMTQSHKFMSTSVGDRVNITCKASQDVIFAVAWYQQKPGQSPKLLIYWASTRHTGVPDRFTGSVSGTDYTLTISSVQAEDLALYYCQQHYSTPWTFGGGTKLEIK |  |
|  | < 0.1 nM | < 0.1 nM | anti-RSPO1 monoclonal antibody 89M4 (antibody, V domains shown) VH: EVQLQQSGPELVKPGASVKISCKTSGYTFTGYTMHWVRQSHGKTLEWIGGINPNNGGTTYNQNFKGKATLTVEKSSTTAYLELRSLTSEDSALYYCARKEFSDGYYFFAYWGQGTLVTVSA VL: DIVMTQSHKFMSTSVGDRVNITCKASQDVIFAVAWYQQKPGQSPKLLIYWASTRHTGVPDRFTGSVSGTDYTLTISSVQAEDLALYYCQQHYSTPWTFGGGTKLEIK |  |
|  |  |  | anti-RSPO2 monoclonal antibody 130M23 (hybridoma ATCC PTA-12021) (antibody, mouse IgG1, kappa, V domains shown, Murine monoclonal antibody; also called parental 130M23 antibody) VH: EVKLVESGGGLVKPGGSLKFSCAASGFSFSSYAMSWVRQTPEKRLEWVASISSGGSTYYPDSVKGRFTISRDNVRNILYLQMSSLRSEDTAMYFCARGGDPGVYNGDYEDAMDYWGQGTSVTVSS VL: DIVMTQSHKFMSTSVGDRVSITCKASQDVSSAVAWYQQKPGQSPKLLIYWASTRHTGVPDRFTNSGSGTDYTLTISSVQAEDLALYYCQQHYSTPWTFGGGTKLEIKR | Kd [9]: 0.14 nM; Kd [10]: 0.35 nM |
|  |  |  | humanized anti-RSPO2 antibody h130M23-H1L2 (antibody, human IgG2, kappa, V domains shown, also called 130M23-H1 with 130M23-L2) VH: EVQLVESGGGLVKPGGSLRLSCAASGFTFSSYAMSWVRQAPGKGLEWVSSISSGGSTYYPDSVKGRFTISRDNAKNSLYLQMNSLRAEDTAVYYCARGGDPGVYNGDYEDAMDYWGQGTTVTVSS VL: DIQMTQSPSSLSASVGDRVTITCKASQDVSSAVAWYQQKPGKAPKLLIYWASTRHTGVPSRFSGSGSGTDFTLTISSVQAEDFATYYCQQHYSTPWTFGQGTKVEIKR | Kd [11]: 0.13 nM |
|  |  |  | humanized anti-RSPO2 antibody h130M23-H1L6 (antibody, human IgG2, kappa, V domains shown) VH: EVQLVESGGGLVKPGGSLRLSCAASGFTFSSYAMSWVRQAPGKGLEWVSSISSGGSTYYPDSVKGRFTISRDNAKNSLYLQMNSLRAEDTAVYYCARGGDPGVYNGDYEDAMDYWGQGTTVTVSS VL: DIQMTQSPSSLSASVGDRVTITCKASQDVSSAVAWYQQKPGKAPKLLIYWASTRHTGVPSRFSGSGSGTDFTLTISSLQPEDFATYYCQQHYSTPWTFGQGTKVEIKR | Kd [11]: 0.15 nM |
| 110 nM |  |  | B2 |  |
